Results taken from patent US20080260713.

Target: T1, human regulatory myosin light chain, his-tagged
T1 chain: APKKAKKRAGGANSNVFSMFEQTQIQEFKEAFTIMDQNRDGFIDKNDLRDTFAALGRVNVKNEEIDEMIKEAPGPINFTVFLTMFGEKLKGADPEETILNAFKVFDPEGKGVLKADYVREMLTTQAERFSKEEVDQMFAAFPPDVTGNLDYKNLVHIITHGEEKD

B1: recombinant human neukinase, His-tagged (protein)
chain: MSGTSKESLGHGGLPGLGKTCLTTMDTKLNMLNEKVDQLLHFQEDVTEKLQSMCRDMGHLERGLHRLEASRAPGPGGADGVPHIDTQAGWPEVLELVRAMQQDAAQHGARLEALFRMVAAVDRAIALVGATFQKSKVADFLMQGRVPWRRGSPGDSPEENKERVEEEGGKPKHVLSTSGLQSDAREPGEESQKADVLEGTAERLPPIRASGLGADPAQAVVSPGQGDGVPGPAQAFPGHLPLPTKVEAKAPETPSENLRTGLELAPAPGRVNVVSPSLEVAPGAGQGASSSRPDPEPLEEGTRLTPGPGPQCPGPPGLPAQARATHSGGETPPRISIHIQEMDTPGEMLMTGRGSLGPTLTTEAPAAAQPGKQGPPGTGRCLQAPGTEPGEQTPEGARELSPLQESSSPGGVKAEEEQRAGAEPGTRPSLARSDDNDHEVGALGLQQGKSPGAGNPEPEQDCAARAPVRAEAVRRMPPGAEAGSVVLDDSPAPPAPFEHRVVSVKETSISAGYEVCQHEVLGGGRFGQVHRCTEKSTGLPLAAKIIKVKSAKDREDVKNEINIMNQLSHVNLIQLYDAFESKHSCTLVMEYVDGGELFDRITDEKYHLTELDVVLFTRQICEGVHYLHQHYILHLDLKPENILCVNQTGHQIKIIDFGLARRYKPREKLKVNFGTPEFLAPEVVNYEFVSFPTDMWSVGVITYMLLSGLSPFLGETDAETMNFIVNCSWDFDADTFEGLSEEAKDFVSRLLVKEKSCRMSATQCLKHEWLNNLPAKASRSKTRLKSQLLLQKYIAQRKWKKHFYVVTAANRLRKFPTSP
B1 was tested, and the “rate of decrease of NADH absorbance at 340 nm (PK/LDH-coupled assay; 90 uM RLC, 1 uM CaM, 0.3 uM CaCl2, 100 nM neukinase)” value was “ΔOD/min/nmol nukinase=0.0152/min/nmol neukinase”.
